Source: paper PMC6003625 (Journal of molecular biology, 2018)

Molecular target: Nup159-Dbp5-Mg2+mantADP complex (S. cerevisiae | , UniProt P20449 1-482; P40477 1-1460)
Experiment: stopped-flow kinetics of mantADP dissociation

Chain of Nup159-Dbp5-Mg2+mantADP complex (P20449 whole entry, chain 1 of 2): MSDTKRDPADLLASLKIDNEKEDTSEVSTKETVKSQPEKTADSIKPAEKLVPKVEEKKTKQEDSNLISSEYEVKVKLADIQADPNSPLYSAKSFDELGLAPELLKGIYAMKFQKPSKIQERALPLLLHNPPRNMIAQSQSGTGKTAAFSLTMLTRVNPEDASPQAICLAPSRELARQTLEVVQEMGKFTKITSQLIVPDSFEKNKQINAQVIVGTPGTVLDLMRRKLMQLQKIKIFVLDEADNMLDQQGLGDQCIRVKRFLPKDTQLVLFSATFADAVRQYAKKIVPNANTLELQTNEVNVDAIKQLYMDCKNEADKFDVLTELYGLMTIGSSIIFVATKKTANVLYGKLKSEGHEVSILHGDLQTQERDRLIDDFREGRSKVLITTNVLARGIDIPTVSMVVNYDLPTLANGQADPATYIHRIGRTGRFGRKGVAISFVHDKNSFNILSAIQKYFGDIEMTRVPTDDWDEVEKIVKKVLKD
Chain of Nup159-Dbp5-Mg2+mantADP complex (P40477 whole entry, chain 2 of 2): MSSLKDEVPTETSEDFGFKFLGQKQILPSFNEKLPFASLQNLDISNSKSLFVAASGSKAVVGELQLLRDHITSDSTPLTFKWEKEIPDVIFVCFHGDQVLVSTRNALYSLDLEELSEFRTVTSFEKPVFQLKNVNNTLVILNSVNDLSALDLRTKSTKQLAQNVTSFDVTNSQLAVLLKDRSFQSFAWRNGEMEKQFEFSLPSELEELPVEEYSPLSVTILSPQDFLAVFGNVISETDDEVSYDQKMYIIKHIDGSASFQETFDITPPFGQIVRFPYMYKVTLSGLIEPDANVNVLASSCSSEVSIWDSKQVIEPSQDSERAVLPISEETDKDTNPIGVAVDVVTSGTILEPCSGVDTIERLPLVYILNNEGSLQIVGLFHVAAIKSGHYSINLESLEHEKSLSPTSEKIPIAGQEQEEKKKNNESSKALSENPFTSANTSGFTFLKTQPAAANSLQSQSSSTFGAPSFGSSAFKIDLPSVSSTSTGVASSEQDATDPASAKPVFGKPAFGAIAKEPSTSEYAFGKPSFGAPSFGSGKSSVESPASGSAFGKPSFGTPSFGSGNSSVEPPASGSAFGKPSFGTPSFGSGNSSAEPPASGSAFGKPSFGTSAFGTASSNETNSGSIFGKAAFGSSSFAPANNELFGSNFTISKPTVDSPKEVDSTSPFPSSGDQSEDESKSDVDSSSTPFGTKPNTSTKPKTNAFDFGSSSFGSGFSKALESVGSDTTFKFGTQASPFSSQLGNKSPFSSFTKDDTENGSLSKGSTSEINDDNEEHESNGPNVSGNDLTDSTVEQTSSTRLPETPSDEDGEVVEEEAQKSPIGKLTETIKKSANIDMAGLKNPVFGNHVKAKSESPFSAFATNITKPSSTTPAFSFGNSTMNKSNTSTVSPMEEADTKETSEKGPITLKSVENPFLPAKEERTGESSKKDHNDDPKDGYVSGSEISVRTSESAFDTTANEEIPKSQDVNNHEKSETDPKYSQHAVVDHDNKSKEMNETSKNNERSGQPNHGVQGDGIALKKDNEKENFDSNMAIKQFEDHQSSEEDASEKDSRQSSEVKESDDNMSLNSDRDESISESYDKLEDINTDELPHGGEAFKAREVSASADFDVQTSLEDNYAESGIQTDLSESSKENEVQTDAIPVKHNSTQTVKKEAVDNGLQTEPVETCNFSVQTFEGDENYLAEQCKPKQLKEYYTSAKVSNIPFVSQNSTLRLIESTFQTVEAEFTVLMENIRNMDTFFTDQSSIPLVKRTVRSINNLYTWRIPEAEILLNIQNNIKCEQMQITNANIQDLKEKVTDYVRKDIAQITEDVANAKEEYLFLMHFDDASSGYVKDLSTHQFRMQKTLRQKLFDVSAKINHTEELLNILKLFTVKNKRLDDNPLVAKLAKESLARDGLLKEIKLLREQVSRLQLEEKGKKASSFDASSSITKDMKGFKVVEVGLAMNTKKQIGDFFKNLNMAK

B1: Gle1 (natural protein, UniProt Q12315 1-538, looked up)
chain: MRFVFDEVFNSDTDSPEFEETCSTTSSTSSQCPTPEPSPAIKLPSFTKVGTKKLVNESVVILDPALENALRDLNLQSKLIPINEPIVAASSIIVPHSTNMPLPRASHSSLLDNAKNSNATAPLLEAIEESFQRKMQNLVLANQKEIQSIRENKRRVEEQRKRKEEEERKRKEAEEKAKREQELLRQKKDEEERKRKEAEAKLAQQKQEEERKKIEEQNEKERQLKKEHEAKLLQQKDKLGKAVTNFDKISKMFWHYKDKIAQIKQDIVLPIKKADVNVRNLLSRHKRKINPKFGQLTNSNQQLFKIQNELTQLINDTKGDSLAYHWILNFIAKAVVHQAETEVRVKPESALPLGKLTLYLLVQFPELQELFMARLVKKCPFVIGFTCEIDTEKGRQNMGWKRNNENKWEDNTSYDERMGGILSLFAIITRLQLPQEFITTTSHPFPIALSWHILARICNTPLNLITNTHFVILGSWWDAAAVQFLQAYGNQASKLLILIGEELTSRMAEKKYVGAARLRILLEAWQNNNMESFPEMSP
  Kd: 1.8 µM
